# According to patent publication US20050221459A1 (DUKE UNIVERSITY, published 2005):
# Ends that are not written are not given here. * marks the point of attachment. Geranylgeranyl = CC(C)=CCC/C(C)=C/CC/C(C)=C/CC/C(C)=C/C*; Farnesyl = CC(C)=CCC/C(C)=C/CC/C(C)=C/C*
# Assays:
# [1] = target: T1, Rat protein geranylgeranyl transferase type I (GGTase-I) (rat, UniProt Q04631 1-377; P53610 1-377); experiment: X-ray crystal structure, product Complex 3
# Protocol: (§1) GGTase-I crystals were grown at 17° C. in hanging drops using equal volumes of protein and reservoir solution (1.3 M NH₄SO₄, 175 mM Na₃ citrate pH 6.5, 20 mM DTT and 100 mM MES, pH 6.3). Micro-seeds were added after equilibration to control nucleation. Seeding solution was produced by crushing GGTase-I crystals in stabilizing solution (1.5 M NH₄SO₄, 175 mM Na₃ citrate pH 6.5, 5 mM ZnCl₂, 20 mM DTT and 100 mM MES, pH 6.3). […] For data collection crystals were transferred stepwise into cryosolvent (30% (w:v) sucrose, 1.8 M NH₄SO₄, 5 mM ZnCl₂, 10 mM TCEP, and 100 mM MES, pH 6.3) before flash-freezing in liquid nitrogen. Derivative crystals were soaked 18 hours in cryosolvent containing 1 mM Di-m-iodobis (ethylenediamine) diplatinum (II) nitrate (PIP) and no TCEP.
# [2] = target: T2, Rat protein farnesyltransferase (rFTase) (rat, UniProt Q04631 1-377; Q02293 1-437); experiment: X-ray crystal structure, FTase complexed with FPT-II and peptide (FIG. 16)
# Excerpt: (§2) The FTase:FPTII: Ca₁a₂X complexes were transferred to cryoprotection solutions and flash-cooled in liquid nitrogen.
# (§3) Diffraction data were collected at 100 K with an R-Axis IV image plate system (Molecular Structure Corp., The Woodlands, Tex., United States of America) mounted on a Rigaku RU-H3R rotating anode generator with double mirror optics (Molecular Structure Corp.). Diffraction data were also collected at the BioCARS and SER-CAT beamlines at the Advanced Photon Source, Argonne National Labs and at the X25 beamline at the National Synchrotron Light Source, Brookhaven National Labs (BNLNSLS).
# (§4) The structures were determined by rigid body refinement using either rat FTase (Brookhaven Protein Data Bank code 1 D8D) or human FTase (Brookhaven Protein Data Bank code 1JCQ) as the initial model with ligands removed. […] After rigid body refinement, FPT-II and the Ca₁a₂X peptides were fit into σA weighted Fₒ-Fc maps and the complexes refined against all data with |F|≧0 by iterative cycles of simulated annealing, minimization, individual B-factor refinement, and model building. Refinements were carried out using CNS v1.0 (Brünger et al., 1998) and models built using O (Jones et al., 1991).
# [3] = target: T1, Rat protein geranylgeranyl transferase …; experiment: X-ray crystal structure, ternary Complex 2 with 3'AzaGGPP
# Protocol: as §1
# [4] = target: T1, Rat protein geranylgeranyl transferase …; experiment: X-ray crystal structure, ternary complex with 3'azaGGPP
# Protocol: Rat GGTase-I was expressed and purified as previously described herein (see also SAtrickland et al., 1999). […] GGTase-I product co-crystals were first transferred stepwise from their mother liquor (1.3 M NH₄SO₄, 175 mM Na₃-citrate, 100 mM MES pH 6.3, and 20 mM DTT) to cyro-solvent (30% (w:v) sucrose, 900 mM Na₃-citrate, 100 mM MES pH 6.3, 10 mM TCEP, and 1 μM ZnCl₂) supplemented with 0.2 mM 3′azaGGPP and 0.2 mM of the appropriate Ca₁a₂X peptide (Sigma-Genosys, >95% purity). All crystals were soaked for a week to allow for ternary complex formation and flash-cooled in liquid nitrogen.
# as §3
# [5] = target: Human protein farnesyltransferase (hFTase) (human, UniProt P49354 1-379; P49356 1-437); experiment: X-ray crystal structure, ternary complex with FPT-II
# Excerpt: as §2, §3, §4
# [6] = target: T2, Rat protein farnesyltransferase (rFTase); experiment: as above
# Excerpt: as §2, §3, §4
# [7] = target: T2, Rat protein farnesyltransferase (rFTase); experiment: co-crystal of the product complex
binding result [4],Binder,other results
–,KKKSKTKC(Geranylgeranyl)VIL (also called prenyl-peptide product; prenylated product) [geranylgeranylated-KKKSKTKCVIL product (SEQ ID NO: 1)],binding result [1]: binds
–,"GCVLS (Synthetic, Sigma-Genosys, >95% purity; also called H-Ras (CVLS)) [H-Ras peptide GCVLS (SEQ ID NO: 6)]",binding result [2]: binds
–,"KKKSKTKCVIL (Synthetic, Sigma-Genosys, >95% purity; also called Rap2b chimera peptide; CVIL peptide) [Ca1a2X peptide KKKSKTKCVIL (SEQ ID NO: 1)]",binding result [3]: binds
binds,"KKKSKTKCVIM (Synthetic, Sigma-Genosys, >95% purity; also called K-Ras4B (CVIM)) [K-Ras4B peptide KKKSKTKCVIM (SEQ ID NO: 8)]",–
binds,"GCINCCKVL (Synthetic, Sigma-Genosys, >95% purity) [RhoB peptide GCINCCKVL (SEQ ID NO: 11)]",–
–,"DDPTASACNIQ (Synthetic, Sigma-Genosys, >95% purity; also called Rap2a (CNIQ)) [Rap2a peptide DDPTASACNIQ (SEQ ID NO: 10)]",binding result [5]: binds
binds,"KKSKTKCVIF (Synthetic, Sigma-Genosys, >95% purity; also called TC21 (CVIF)) [TC21 peptide KKSKTKCVIF (SEQ ID NO: 9)]",binding result [6]: binds
binds,"RRCVLL (Synthetic, Sigma-Genosys, >95% purity; also called Cdc42-II) [Cdc42 splice isoform 2 peptide RRCVLL (SEQ ID NO: 14)]",–
binds,"FREKKFFCAIL (Synthetic, Sigma-Genosys, >95% purity; also called y2) [heterotrimeric G protein γ2 subunit peptide FREKKFFCAIL (SEQ ID NO: 13)]",–
binds,"KKSKTKCKVL (Synthetic, Sigma-Genosys, >95% purity) [RhoB peptide KKSKTKCKVL (SEQ ID NO: 12)]",–
–,"KKKSKTKC(Farnesyl)VIM (Product co-crystal with FTase, used as starting material for the TC21 soak; also called farnesylated product) [farnesylated-KKKSKTKCVIM product (SEQ ID NO: 8)]",binding result [7]: binds
